Experimental findings from publication PMC12084805 are described below.

Read-outs that look alike come from different tables or passages of the source.

Experiment in all cases: EMSA
(In general: Mobility shift assays separate free from complexed probe on a gel.)

The target of data set [1] is T1, POT-2 (Caenorhabditis elegans, UniProt O45595 1-251).
T1 sequence: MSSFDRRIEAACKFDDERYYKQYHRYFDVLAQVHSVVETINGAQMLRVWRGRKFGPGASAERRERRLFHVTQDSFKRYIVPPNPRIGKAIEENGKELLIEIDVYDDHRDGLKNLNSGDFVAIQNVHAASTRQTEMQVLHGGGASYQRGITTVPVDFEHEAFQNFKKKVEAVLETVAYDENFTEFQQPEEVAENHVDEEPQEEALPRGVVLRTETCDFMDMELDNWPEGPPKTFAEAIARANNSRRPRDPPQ

Data set [2] has as its target T2, POT-3 (Caenorhabditis elegans, UniProt G5EFG7 1-215).
T2 sequence: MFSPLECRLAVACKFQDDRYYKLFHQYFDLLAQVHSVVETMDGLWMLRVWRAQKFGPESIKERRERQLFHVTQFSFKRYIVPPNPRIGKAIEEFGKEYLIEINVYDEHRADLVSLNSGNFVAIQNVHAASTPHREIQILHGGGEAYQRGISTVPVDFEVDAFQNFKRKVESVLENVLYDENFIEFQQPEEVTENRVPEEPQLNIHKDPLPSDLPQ

Data set [3] addresses T1, POT-2. The source holds these as a separate data set.
In data set [4] the target is T2, POT-3. This is another data set of the same source.

TTAGGTTTAGGT (ssDNA) [ss (TTAGGT)2]: the binding result with POT-2 [1] and with POT-3 [2] was “no binding” throughout.
Take TTAGACTTAGAC (ssDNA) [ss (TTAGAC)2]: the binding result with POT-2 [1] and with POT-3 [2] was “no binding” each time.
Turning to TTAGGCTTAGGC (ssDNA) [ss (TTAGGC)2], the binding result in the data set with POT-2 [3] and with POT-3 [4] was “binds” throughout.
